Measurements published in patent US9206246B2, “Heparin/heparan sulfate-dependent inhibitors of activated protein C and uses thereof in treating hemophilic disorders” (Academia Sinica, priority 2012, dated 2015).

Tests used:
[1] = molecular target: T1, human activated protein C (Homo sapiens, UniProt P04070); assay: Inhibition of APC amidolytic activity (Spectrozyme PCa chromogenic substrate); type: biochemical
T1 construct: purchased Haematologic Technologies
Method: B: Dose-response curves of APC (10 nM) inhibition by DrKIn-I in the absence (◯) and presence (●) of 0.1 U/ml heparin. C: To determine the minimum concentration of heparin required for the potentiation APC inhibition, the activity of APC (20 nM) was measured after the addition of DrKIn-I (20 nM) and varying concentrations of heparin (0-1000 mU/ml). D: To assess the ability of heparan sulfate and the minimum length of heparan sulfate required to potentiate DrKIn-I-mediated APC inhibition, the amidolytic activity of APC was determined in the presence of DrKIn-I (20 nM) and different lengths of heparan sulfate chains (10 μg/ml each). E, Time course of FVa inactivation by APC (1 nM) was assessed in the absence (●) or presence (▪) of 5 nM DrKIn-I, or in the presence of 5 nM DrKIn-I supplemented with 0.1 U/ml heparin (▴), as described in “Materials and methods”. F, The effect of DrKIn-I (0-250 nM) and/or heparin (0.1 U/ml) on APC-mediated FVa inactivation was determined after 10 minutes of incubation at 37° C. with APC (5 nM). Results shown are means±SD of three experiments.
All inhibition assays were performed in 96-wells microtiter plates in 25 mM Tris-HCl (pH 7.4), 150 mM NaCl, 2.5 mM CaCl2 and 5 mg/ml BSA. For comparison between DrKIn-I and DrKIn-II, the amidolytic activity of 10 nM APC, with or without 0.1 U/ml heparin, was assayed in the presence or absence of equal molar concentrations of DrKIn-I or DrKIn-II. Immediately after the addition of APC, Spectrozyme PCa was added and the rates of p-nitroaniline release were monitored at 405 nm for 10 minutes at 37° C. For dose response curves, APC was mixed with different concentrations of DrKIn-I in the presence or absence of heparin. The final concentrations were as follows: APC (10 nM), heparin (0.1 U/ml) and DrKIn-I (0-100 nM in the presence of heparin and 0-12800 nM in the absence of heparin). Dose-response curves were fitted using GraphPad Prism (GraphPad Software). In other inhibition experiments, varying concentrations of heparin ([…]) or different lengths of heparan sulfate chains (10 μg/ml) were added to equimolar concentrations of APC and DrKIn-I (20 nM each). In all the inhibition experiments, Spectrozyme PCa was added to a final concentration of 0.2 mM. Changes in absorbance were measured using SpectraMax M2^e Microplate Reader (Molecular Devices).

[2] = Heparin binding assay (HiTrap Heparin column, NaCl gradient); settings: data not shown
Method: A: 70 μg of DrKIn-I in 0.1 ml equilibrating buffer (20 mM Tris-HCl, pH 8.0) was applied to a 5 ml HiTrap Heparin column and eluted with a 50 ml gradient from 0.0-1.0 M NaCl. The salt concentration corresponding to the elution peak was determined to be 0.95 M. B, Binding of DrKIn-I (0.78, 1.56, 2.34, 3.13, 4.68 and 6.25 nM) to immobilized APC was assessed in buffer containing 10 mM HEPES, 0.15 M NaCl, 3 mM EDTA and 0.05% P20 at a flow rate of 60 μl/min at 25° C. […] The thin lines represent the global fit to the response data. […] Results shown are means±SD of three experiments. Representative binding traces are shown.

plasmin = assay: Euglobulin clot lysis assay; type: biochemical
APC [3] = molecular target: T2, APC (Homo sapiens, UniProt P04070); assay: APC inhibition by recombinant DrKIn-I wild type and mutants (S-2366 chromogenic substrate); type: biochemical; settings: APC 20 nM, S-2366 0.4 mM
From the text: A: amino acid alignment of the C-terminal regions of the wild-type DrKIn-I peptide and three mutants, which were generated by either deleting or mutating (alanine substitution; denoted by bold letters) one or both of the C-terminus heparin binding motifs. Underlined amino acids are the putative heparin binding motifs. B: SDS-PAGE analysis of the wild-type and mutant DrKIn-I peptides. Wild-type: SEQ ID NO:3. Mutant 1: SEQ ID NO:4. Mutant 2: SEQ ID NO:5. Mutant 3: SEQ ID NO:6. C-D: Inhibitory effect of DrKIn-I wild type (●), mutant 1 (▴), mutant 2 (▾) and mutant 3 (▪) on APC (20 nM) in the presence (C) or absence (D) of heparan sulfate (10 μg/ml). Activity of APC without the addition of inhibitors was considered as 100%.
The wild-type DrKIn-I and the mutants at various concentrations were mixed with APC (20 nM) in the presence of heparin or heparan sulfate (10 μg/ml). After 3 minutes of incubation, a chromogenic substrate S-2366 (0.4 mM) was added and the rate of p-nitroaniline release was monitored at 405 nm for 10 minutes at 37° C. […] On the other hand, Mutants 1 and 2 inhibit APC in the presence of heparin.
Target sequence in this assay (P04070 212-450 limits assumed): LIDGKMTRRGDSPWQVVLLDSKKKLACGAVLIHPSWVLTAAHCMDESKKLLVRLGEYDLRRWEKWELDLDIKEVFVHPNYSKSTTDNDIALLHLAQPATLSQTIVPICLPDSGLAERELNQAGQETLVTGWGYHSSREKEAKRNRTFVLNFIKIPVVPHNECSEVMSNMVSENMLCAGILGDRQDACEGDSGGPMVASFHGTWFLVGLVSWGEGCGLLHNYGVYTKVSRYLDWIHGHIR
Target sequence in this assay (P04070 43-197 limits assumed): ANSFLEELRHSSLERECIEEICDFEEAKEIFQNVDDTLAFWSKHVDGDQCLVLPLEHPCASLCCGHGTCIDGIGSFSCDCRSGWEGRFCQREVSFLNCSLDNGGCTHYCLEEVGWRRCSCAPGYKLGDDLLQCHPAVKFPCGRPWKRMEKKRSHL

APC [4] = molecular target: T2, APC; settings: in the absence of heparin; cited from earlier work
Target sequence in this assay (P04070 212-461 limits assumed): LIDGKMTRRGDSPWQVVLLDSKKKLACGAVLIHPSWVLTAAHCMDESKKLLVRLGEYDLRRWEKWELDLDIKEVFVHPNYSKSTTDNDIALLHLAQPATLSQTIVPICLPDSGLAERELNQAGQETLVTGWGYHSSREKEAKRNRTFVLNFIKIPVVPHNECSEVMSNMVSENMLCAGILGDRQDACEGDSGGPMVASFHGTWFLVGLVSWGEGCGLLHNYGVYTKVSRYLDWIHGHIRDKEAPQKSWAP
Target sequence in this assay (P04070 43-197 limits assumed): as the sequence (P04070 43-197 limits assumed) above

T1 sequence (P04070 212-450 limits assumed): as the sequence (P04070 212-450 limits assumed) above
T1 sequence (P04070 43-197 limits assumed): as the sequence (P04070 43-197 limits assumed) above

## DrKIn-II (HDRPTFCNLAPESGRCRAHLRRIYYNLESNKCEVFFYGGCGGNDNNFSTWDECRHTCVGK)
[1]; 10 nM inhibitor, 10 nM APC, no heparin
  inhibitory activity against APC in the absence of heparin: little inhibitory activity against APC
[1]; equimolar inhibitor and APC (10 nM each), 0.1 U/ml heparin, Spectrozyme PCa 0.2 mM
  decrease of APC activity (inhibition of APC amidolytic activity): ~20%
[1]; summary statement in discussion
  inhibitory activity against APC: no inhibitory activity against APC
[2]
  affinity towards heparin column: no affinity towards heparin column

## heparin [reference compound]
[1]; heparin alone 0.1 U/ml, regardless of the type of substrate (Spectrozyme PCa or FVa)
  effect of heparin alone on APC activity: did not alter the activity of APC

## aprotinin [reference compound]
plasmin; 20 nM inhibitor
  prolongation of euglobulin clot lysis time: ~9 h
plasmin; 100 nM inhibitor
  prolongation of euglobulin clot lysis time: more than 16 hours

## Mutant 1: Recombinant DrKIn-I mutant R50A/K51A/K52A lacking one of the two heparin binding sites (CGGNDNNFETAAACRQTCGAPRKGRPT)
APC [3]
  APC inhibition in the presence of heparin: inhibit APC

## Mutant 2: Recombinant DrKIn-I deletion mutant Δ60-66 lacking one of the two heparin binding sites (CGGNDNNFETRKKCRQTCGA)
APC [3]
  APC inhibition in the presence of heparin: inhibit APC

B1: protein C inhibitor: plasma APC inhibitor belonging to the serpin family (protein, UniProt P05154 26-406, looked up)
Plasma serine protease …: EMKKRVEDLHVGATVAPSSRRDFTFDLYRALASAAPSQSIFFSPVSISMSLAMLSLGAGSSTKMQILEGLGLNLQKSSEKELHRGFQQLLQELNQPRDGFQLSLGNALFTDLVVDLQDTFVSAMKTLYLADTFPTNFRDSAGAMKQINDYVAKQTKGKIVDLLKNLDSNAVVIMVNYIFFKAKWETSFNHKGTQEQDFYVTSETVVRVPMMSREDQYHYLLDRNLSCRVVGVPYQGNATALFILPSEGKMQQVENGLSEKTLRKWLKMFKKRQLELYLPKFSIEGSYQLEKVLPSLGISNVFTSHADLSGISNHSNIQVSEMVHKAVVEVDESGTRAAAATGTIFTFRSARLNSQRLVFNRPFLMFIVDNNILFLGKVNRP
APC [4]
  second order rate constant of APC inhibition: 2500 M⁻¹ s⁻¹
